The source of these data is patent publication US20230416329A1 (INSTITUTE OF MATERIA MEDICA CHINESE ACADEMY OF MEDICAL …, published 2023).

The target in assay [1] is T1, PCSK9 protein (UniProt Q8NBP7 31-692, limits assumed).
T1 construct: Kit reagent; also called proprotein convertase subtilisin/kexin type 9
Description: PCSK9-LDLR in vitro binding assay kit, OD450/540; peptide 10 µM; inhibition of PCSK9 binding to LDLR. The procedure: (§1) Solvent control: replace polypeptide with 5 μL solvent.
(§2) ^aThe concentration of samples in the table was 50 μM.

Assay [2] deals with T1, PCSK9 protein. The assay is described as follows: PCSK9-LDLR in vitro binding assay kit, OD450/540; peptide 100 µM; inhibition of PCSK9 binding to LDLR. As for the experimental part:
as §1, §2

The target of assay [3] is T1, PCSK9 protein. The assay is described as follows: PCSK9-LDLR in vitro binding assay kit, OD450/540; peptide 50 µM, PCSK9 75 ng/mL; inhibition of PCSK9 binding to LDLR.
Assay [4] deals with porcine pancreatic elastase (porcine, UniProt P00772 27-266). The assay is described as follows: elastase inhibition in vitro. As for the experimental part:
The substrates N-succinyl-Ala-Ala-Pro-Phe-p-nitroaniline (AAPFpNA), Nα—Benzoyl-L-arginine-4-nitroaniline hydrochloride (BApNA) and N-succinyl-[…] (AAApNA) are used in competitive binding reaction to determine the inhibitory activities against α-chymotrypsin, bovine trypsin, and porcine pancreatic elastase, respectively. Experiments for α-chymotrypsin and bovine trypsin inhibition were measured in 20 mM CaCl₂, 50 mM Tris-HCl buffer (pH 7.8), and that for porcine elastase inhibition was measured in 50 mM Tris-HCl buffer (pH 8.0). The concentration of the peptide was measured using optical density (OD) at 280 nm. The Michaelis constant (Kₘ) of the enzyme hydrolysis substrate is calculated from the initial rate of substrate hydrolysis at 405 nm. The absorbance value of the substrate was measured at 405 nm after complete hydrolysis. All data were processed using nonlinear regression.
(1) Added a total 190 μL of different concentrations of peptides (ECs) against elastase and reaction buffer (20 mM CaCl₂, 50 mM Tris-HCl buffer (pH 8.0)) into the pre-cold 96 well plate, followed by preheating at 37° C. for 5 min and centrifugated at 500 rpm for 1 min and allowed to stand for 4 minutes. […] Finally, added 2 μL of 100 mM AAApNA, and mixed by centrifugation at 500 rpm for 1 min. The plate was incubated at 37° C. for 60 min, and the absorbance value at 405 nm was measured. Three repetitions were made, and only reaction buffer and substrate were added in the blank control as the minimum absorption value (Min OD_{405 nm}); Only reaction buffer, enzyme and substrate were added in the negative control as the maximum absorption value (Max OD₄₀₅ nm). [0472] (2) In the 200 μL of reaction system, the final concentrations of elastase and AAApNA were 0.5 μM and 1 mM, respectively. [0473] (3) Data statistics
Target sequence in this assay (P00772 27-266 limits assumed): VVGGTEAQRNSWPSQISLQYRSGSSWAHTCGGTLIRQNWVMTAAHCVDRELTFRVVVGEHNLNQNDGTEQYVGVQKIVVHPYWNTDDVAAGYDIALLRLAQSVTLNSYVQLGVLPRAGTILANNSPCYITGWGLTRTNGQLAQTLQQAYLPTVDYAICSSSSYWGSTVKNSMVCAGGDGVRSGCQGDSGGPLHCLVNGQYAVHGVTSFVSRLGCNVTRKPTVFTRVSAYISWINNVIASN

In assay [5] the target is T2, porcine pancreatic elastase (porcine, UniProt P00772 27-266).
T2 construct: substrate AAApNA
Description: elastase inhibition, Ki=IC50/(1+S/Km).
T2 sequence (P00772 27-266 limits assumed): as above

Assay [6] deals with T2, porcine pancreatic elastase. The assay is described as follows: elastase inhibition, AAApNA substrate, OD405.

Bridge positions count the residues as written; N and C are the ends. Ends that are not written are not given here.

B1: PCSK9_2EC (peptide)
peptide: TVFTSWEEALDWVGICTASIPPICQ-OH
modifications: disulfide 16-24 (inferred)
notes: Contains an anti-elastase scaffold, with a disulfide bond between its two Cys
B1: the “Inhibitory rate (%)” value worked out at 73.1% with PCSK9 protein [1] and 100% in the assay with PCSK9 protein [2].
As to GTNEALDNNCGRATKSIPPICFVANDLK (disulfide 10-21 (inferred)) [PCSK9_11], the “Inhibitory rate (%)” value with PCSK9 protein [3] turned out to be 3.6%.
With GTNEALDNNCGRATKSIPPICFGTVFTS (disulfide 10-21 (inferred)) [PCSK9_14], the “Inhibitory rate (%)” value with PCSK9 protein [3] is -8.7%.
On the same count and under the same terms, as for GTNEALDNNCGRATKSIPPICFYVANDLKI (disulfide 10-21 (inferred)) [PCSK9_10], the figure is -18.5%.

B2: PCSK9_2 (peptide)
peptide: TVFTSWEEALDWVCGRATKSIPPICF
modifications: disulfide 14-25 (inferred)
notes: Hybrid of the Pep2-8 analogue with the anti-trypsin scaffold BT9; A disulfide bond joins the two Cys of the scaffold
In the case of B2, the “Inhibitory rate (%)” value with PCSK9 protein [3] stood at 89.9%.

B3: PCSK9_7 (peptide)
peptide: TVFTSGCGRATKSIPPICFWEEYLDWV
modifications: disulfide 7-18 (inferred)
notes: Hybrid with the anti-trypsin scaffold BT9; A disulfide bond joins the two Cys of the scaffold
For B3, in the assay with PCSK9 protein [3], the “Inhibitory rate (%)” value is 80.7%.

B4: PCSK9_5 (peptide)
peptide: WEEALDWVCGRATKSIPPICFGTVFTS
modifications: disulfide 9-20 (inferred)
notes: as for B3
Regarding B4, the “Inhibitory rate (%)” value with PCSK9 protein [3] worked out at 77.9%.

B5: PCSK9_6 (peptide)
peptide: WEEYLDYVCGRATKSIPPICFGTVFTS
modifications: disulfide 9-20 (inferred)
notes: as for B3
B5: the “Inhibitory rate (%)” value with PCSK9 protein [3] came out at 87%.

B6: PCSK9_3 (peptide)
peptide: CGRATKSIPPICFGTVFTSWEEALDWV
modifications: disulfide 1-12 (inferred)
notes: as for B3
B6: in the assay with PCSK9 protein [3], the “Inhibitory rate (%)” value was 89.9%.
Consider WEEALDWVCGRATKSIPPICFGYVANDLKI (disulfide 9-20 (inferred)) [PCSK9_12], for which the “Inhibitory rate (%)” value in the assay with PCSK9 protein [3] is 44.7%.

B7: PCSK9_2CH (peptide)
peptide: TVFTSWEEALDWVGFCTYSIPPQCYG
modifications: disulfide 16-24 (inferred)
notes: Contains an anti-chymotrypsin scaffold, with a disulfide bond between its two Cys
Turning to B7, the “Inhibitory rate (%)” value with PCSK9 protein [3] was found to be 100%.
In the case of LCTASIPPICQ (disulfide 2-10 (inferred)) [EC12], in assay [4], the binding result is “binds”.
The same measure, in the same setting: as for VCTASIPPICQ (disulfide 2-10 (inferred)) [EC22], the entry is “binds”.
For ICTASIPPICQ (disulfide 2-10 (inferred)) [EC23], the binding result in assay [4] is “binds”.
As to LCTASIPPQCQ (disulfide 2-10 (inferred)) [EC18], in assay [4], the binding result was “binds”.
In the case of LCTASNPPICQ (disulfide 2-10 (inferred)) [EC25], the binding result in assay [4] was “binds”.
Regarding LCTASIPPQCY (disulfide 2-10 (inferred)) [EC1], the binding result in assay [4] is given as “binds”.
Turning to YCTASIPPICQ (disulfide 2-10 (inferred)) [EC29], the binding result in assay [4] is “binds”.

B8: PCSK9_3EC (peptide)
peptide: ICTASIPPICQGTVFTSWEEALDWV
modifications: disulfide 2-10 (inferred)
notes: as for B1
Regarding B8, in the assay with PCSK9 protein [3], the “Inhibitory rate (%)” value stood at 99.6%.

B9: PCSK9_5EC (peptide)
peptide: WEEALDWVGICTASIPPICQGTVFTS
modifications: disulfide 11-19 (inferred)
notes: as for B1
With B9, the “Inhibitory rate (%)” value with PCSK9 protein [1] came to 85.2%; with PCSK9 protein [2], 95.3%.

B10: PCSK9_6EC (peptide)
peptide: WEEYLDYVGICTASIPPICQGTVFTS
modifications: disulfide 11-19 (inferred)
notes: as for B1
As for B10, the “Inhibitory rate (%)” value with PCSK9 protein [1] worked out at 96.7%; in the assay with PCSK9 protein [2], 99.4%.

B11: PCSK9_5CH (peptide)
peptide: WEEALDWVGFCTYSIPPQCYGTVFTS
modifications: disulfide 11-19 (inferred)
notes: as for B7
Regarding B11, the “Inhibitory rate (%)” value in the assay with PCSK9 protein [1] is 99.4%.

B12: PCSK9_6CH (peptide)
peptide: WEEYLDYVGFCTYSIPPQCYGTVFTS
modifications: disulfide 11-19 (inferred)
notes: as for B7
B12: the “Inhibitory rate (%)” value stood at 75.3% in the assay with PCSK9 protein [1] and 93.7% with PCSK9 protein [2].

B13: PCSK9_3CH (peptide)
peptide: FCTYSIPPQCYGGTVFTSWEEALDWV
modifications: disulfide 2-10 (inferred)
notes: as for B7
With B13, in the assay with PCSK9 protein [3], the “Inhibitory rate (%)” value is 99.2%.

B14: EC50 (peptide)
peptide: SNGNAVEDGGLCTASIPPQCY
modifications: disulfide 12-20 (inferred)
notes: disulfide bond between the two Cys; peptide name, not a potency value
As for B14, in assay [5], the Ki worked out at 280 nM. For the same molecule, the IC50 in assay [6] amounted to 970 nM.

B15: PCSK9_9 (peptide)
peptide: TVFTSGRCTKSIPPICFWEEYLDWV
modifications: disulfide 8-16 (inferred)
notes: Hybrid with the anti-trypsin scaffold BT45; A disulfide bond joins the two Cys of the scaffold
For B15, the “Inhibitory rate (%)” value with PCSK9 protein [3] stood at 93.9%.

B16: PCSK9_9EC (peptide)
peptide: TVFTSGICTASIPPICQWEEYLDWV
modifications: disulfide 8-16 (inferred)
notes: as for B1
For B16, the “Inhibitory rate (%)” value in the assay with PCSK9 protein [1] was 94.3%; with PCSK9 protein [2], 101%.

B17: PCSK9_9CH (peptide)
peptide: TVFTSGFCTYSIPPQCYGWEEYLDWV
modifications: disulfide 8-16 (inferred)
notes: as for B7
As for B17, the “Inhibitory rate (%)” value was 98.4% with PCSK9 protein [1] and 102% in the assay with PCSK9 protein [2].

B18: PCSK9_8 (peptide)
peptide: TVFTSGCGRATKSIPPICFSWEEYLDWV
modifications: disulfide 7-18 (inferred)
notes: as for B3
On to B18, for which the “Inhibitory rate (%)” value with PCSK9 protein [3] came out at 75.7%.

B19: PCSK9_4 (peptide)
peptide: WEEALDWVCGRATKSIPPICFTVFTS
modifications: disulfide 9-20 (inferred)
notes: A disulfide bond joins the two Cys of the scaffold
Consider B19, for which the “Inhibitory rate (%)” value with PCSK9 protein [3] was determined as 41.4%.

As a reminder, the Ki is the equilibrium dissociation constant of an inhibitor or competing ligand from its target. A low value points to tighter binding. Usually IC50 stands for the concentration that inhibits the measured activity by half. Low values mean higher potency, high ones lower potency.
